± gives the uncertainty stated by the source.
Assay: self-splicing fitness, log relative to wild type (ln ratio); higher = more splicing; Tetrahymena group I intron in knt gene, E. coli kanamycin selection, DiMSum; sequences stand for … in CUCUCU…GGAGGGAAAAGUUAUCAGGCAUGCACCUGGUAGCUAGUCUUUAAACCAAUAGAUUGCAUCGGUUUAAAAGGCAAGACCGUCAAAUUGCGGGAAAGGGGUCAACAGCCGUUCAGUACCAAGUCUCAGGGGAAACUUUGAGAUGGCCUUGCAAAGGGUAUGGUAAUAAGCUGACGGACAUGGUCCUAACCACGCAGCCAAGUCCUAAGUCAACAGAUCUUCUGUUGAUAUGGAUGCAGUUCACAGACUAAAUGUCGGUCGGGGAAGAUGUAUUCUUCUCAUAAGAUAUAGUCGGACCUCUCCUUAAUGGGAGCUAGCGGAUGAAGUGAUGCAACACUGGAGCCGCUGGGAACUAAUUUGUAUGCGAAAGUAUAUUGAUUAGUUUUGGAGUACUCGUGGUCG
Procedure, shortened: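 The eight P1ex-region nucleotides of an intron in the knt kanamycin-resistance gene on pET-22b(+) were all randomised and the library put into E. coli BL21(DE3). Six replicate transformations were grown overnight at 37°C or 30°C on LB agar with or without 25 μg/mL kanamycin, together with 100 μg/mL carbenicillin, 50 μM IPTG and 0.2% rhamnose. Colonies were pooled and amplicon-sequenced on an Illumina HiSeq 2500. Fitness from DiMSum is the error-weighted combination of wild-type-normalised replicate fold changes, kanamycin over none.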

Row | Sequence | self-splicing fitness (ln) (30 °C) | self-splicing fitness (ln) (37 °C)
1 | UGUGAGCAAUAUUACGUCAA | -3.68 ± 0.35 | -2.65 ± 0.31
2 | UGUGAGCAAUAUUACGUCAG | -1.88 ± 0.3 | -1.02 ± 0.24
3 | UGUGAGCAAUAUUACGUCCA | -0.973 ± 0.13 | -0.0412 ± 0.16
4 | UGUGAGCAAUAUUACGUCUG | -0.95 ± 0.15 | -0.000357 ± 0.17
5 | UGUGAGCAAUAUUACGUGCG | -1.36 ± 0.11 | -1.06 ± 0.14
6 | UGUGAGCAAUAUUACGUGGG | -3.67 ± 0.25 | -2.34 ± 0.15
7 | UGUGAGCAAUAUUACGUUAU | -4.11 ± 0.28 | -3.51 ± 0.28
8 | UGUGAGCAAUAUUACGUUGA | -2.82 ± 0.14 | -2.11 ± 0.15
9 | UGUUAGCAAUAUUACGAAUG | -1.1 ± 0.097 | -0.239 ± 0.13
10 | UGUUAGCAAUAUUACGAUAU | -2.45 ± 0.21 | -0.289 ± 0.25
11 | UGUUAGCAAUAUUACGCCAG | -1.36 ± 0.23 | -1.76 ± 0.35
12 | UGUUAGCAAUAUUACGCCGG | -0.866 ± 0.13 | -0.696 ± 0.19
13 | UGUUAGCAAUAUUACGCCUG | 0.435 ± 0.13 | 0.171 ± 0.17
14 | UGUUAGCAAUAUUACGCUCA | 0.179 ± 0.19 | -0.292 ± 0.18
15 | UGUUAGCAAUAUUACGCUGG | -3.77 ± 0.24 | 0.0911 ± 0.15
16 | UGUUAGCAAUAUUACGGAUG | -1.89 ± 0.12 | -0.39 ± 0.11
17 | UGUUAGCAAUAUUACGGGAA | -1.84 ± 0.24 | -0.696 ± 0.2
18 | UGUUAGCAAUAUUACGGGUA | -0.939 ± 0.15 | -1.4 ± 0.16
19 | UGUUAGCAAUAUUACGGUGA | -1.51 ± 0.18 | -0.192 ± 0.19
20 | UGUUAGCAAUAUUACGUAAU | -2.96 ± 0.3 | -1.02 ± 0.21
21 | UGUUAGCAAUAUUACGUACC | -0.945 ± 0.14 | 0.399 ± 0.17
22 | UGUUAGCAAUAUUACGUAGC |  | -0.793 ± 0.22
23 | UGUUAGCAAUAUUACGUCCA | -0.514 ± 0.071 | 0.305 ± 0.13
24 | UGUUAGCAAUAUUACGUCCU | -1.31 ± 0.15 | -0.516 ± 0.23
25 | UGUUAGCAAUAUUACGUCUU | -2.21 ± 0.15 | -1.46 ± 0.13

Row | Sequence | self-splicing fitness (ln) (30 °C) | self-splicing fitness (ln) (37 °C)
26 | UGUUAGCAAUAUUACGUGGG | -3.19 ± 0.27 | -2.89 ± 0.27
27 | UGUUAGCAAUAUUACGUUUG | -2.14 ± 0.16 | -1.26 ± 0.18
28 | UUAAAGCAAUAUUACGAAAC |  | -1.33 ± 0.29
29 | UUAAAGCAAUAUUACGAAUG | -0.609 ± 0.096 | 0.0465 ± 0.14
30 | UUAAAGCAAUAUUACGACCU | -0.0595 ± 0.074 | 0.121 ± 0.1
31 | UUAAAGCAAUAUUACGACGG | -0.186 ± 0.091 | 0.75 ± 0.15
32 | UUAAAGCAAUAUUACGACUA | 0.243 ± 0.1 | 0.643 ± 0.14
33 | UUAAAGCAAUAUUACGAGAA | -1.48 ± 0.096 | -0.717 ± 0.12
34 | UUAAAGCAAUAUUACGAGCC | -2.3 ± 0.15 | -1.42 ± 0.27
35 | UUAAAGCAAUAUUACGAGCG | -0.119 ± 0.086 | 0.287 ± 0.12
36 | UUAAAGCAAUAUUACGCAAA | -1.1 ± 0.079 | -0.177 ± 0.12
37 | UUAAAGCAAUAUUACGCACG | -0.443 ± 0.092 | 0.47 ± 0.14
38 | UUAAAGCAAUAUUACGCAGU | -3.1 ± 0.28 | -1.36 ± 0.18
39 | UUAAAGCAAUAUUACGCAUG | -0.545 ± 0.12 | 0.368 ± 0.13
40 | UUAAAGCAAUAUUACGCCGC | -2.1 ± 0.39 | 0.305 ± 0.29
41 | UUAAAGCAAUAUUACGCCGU | -0.966 ± 0.18 | -0.394 ± 0.25
42 | UUAAAGCAAUAUUACGCGAC | -2.19 ± 0.15 | -1.72 ± 0.17
43 | UUAAAGCAAUAUUACGCUCC | -1.79 ± 0.19 | -1.08 ± 0.24
44 | UUAAAGCAAUAUUACGCUGC | -2.18 ± 0.15 | -2.71 ± 0.38
45 | UUAAAGCAAUAUUACGGGCU | -2.46 ± 0.11 | -0.716 ± 0.1
46 | UUAAAGCAAUAUUACGUAAU | -2.43 ± 0.12 | -1.91 ± 0.14
47 | UUAAAGCAAUAUUACGUCUU | -1.23 ± 0.082 | -0.988 ± 0.12
48 | UUAAAGCAAUAUUACGUGAU | -3.01 ± 0.15 | -1.15 ± 0.14
49 | UUAAAGCAAUAUUACGUUUU | -3.84 ± 0.2 | -2.27 ± 0.18
50 | UUACAGCAAUAUUACGAAGU | -3.35 ± 0.29 | -2.7 ± 0.36

Row | Sequence | self-splicing fitness (ln) (30 °C) | self-splicing fitness (ln) (37 °C)
51 | UUACAGCAAUAUUACGAGAA | -1.83 ± 0.2 | -1.59 ± 0.2
52 | UUACAGCAAUAUUACGAUAC | -3.01 ± 0.32 | -3.46 ± 0.39
53 | UUACAGCAAUAUUACGAUGA | -0.445 ± 0.06 | 0.596 ± 0.078
54 | UUACAGCAAUAUUACGAUGG | -1.16 ± 0.062 | -0.0316 ± 0.086
55 | UUACAGCAAUAUUACGAUUG | -1.76 ± 0.091 | -0.796 ± 0.1
56 | UUACAGCAAUAUUACGAUUU | -1.09 ± 0.059 | -0.22 ± 0.084
57 | UUACAGCAAUAUUACGCAAA | -1.83 ± 0.17 | -0.688 ± 0.12
58 | UUACAGCAAUAUUACGCGCA | -0.521 ± 0.11 | -0.892 ± 0.12
59 | UUACAGCAAUAUUACGCGUG | -1.17 ± 0.081 | -0.156 ± 0.093
60 | UUACAGCAAUAUUACGGAAU | -3.68 ± 0.2 | -2.7 ± 0.17
61 | UUACAGCAAUAUUACGGCCU | -0.981 ± 0.17 | -1.23 ± 0.26
62 | UUACAGCAAUAUUACGGGAG | -1.23 ± 0.071 | -0.858 ± 0.077
63 | UUACAGCAAUAUUACGGUUA | -0.071 ± 0.058 | 0.344 ± 0.07
64 | UUACAGCAAUAUUACGGUUG | -0.8 ± 0.054 | -0.338 ± 0.07
65 | UUACAGCAAUAUUACGUAGG | -1.12 ± 0.066 | -1.19 ± 0.096
66 | UUACAGCAAUAUUACGUCUU | -1.49 ± 0.069 | -0.819 ± 0.09
67 | UUACAGCAAUAUUACGUGCU | -3.78 ± 0.2 | -2.26 ± 0.23
68 | UUACAGCAAUAUUACGUGGA | -1.88 ± 0.095 | -1.41 ± 0.094
69 | UUAGAGCAAUAUUACGAAUU | -1.77 ± 0.28 | 
70 | UUAGAGCAAUAUUACGACAU | -1.894 ± 0.018 | -1.19 ± 0.036
71 | UUAGAGCAAUAUUACGACUC | -2.73 ± 0.39 | 
72 | UUAGAGCAAUAUUACGAGAU |  | -2.03 ± 0.43
73 | UUAGAGCAAUAUUACGAGCG | -0.362 ± 0.17 | -0.824 ± 0.25
74 | UUAGAGCAAUAUUACGAGGU |  | -2.29 ± 0.35
75 | UUAGAGCAAUAUUACGAUUU | -2.08 ± 0.18 | -1.88 ± 0.26

Row | Sequence | self-splicing fitness (ln) (30 °C) | self-splicing fitness (ln) (37 °C)
76 | UUAGAGCAAUAUUACGCAAA | -1.89 ± 0.14 | -0.682 ± 0.16
77 | UUAGAGCAAUAUUACGCCAU | -2.82 ± 0.32 | 
78 | UUAGAGCAAUAUUACGCGAU | -3.09 ± 0.19 | -2.19 ± 0.24
79 | UUAGAGCAAUAUUACGCGCG | -0.351 ± 0.16 | 0.871 ± 0.18
80 | UUAGAGCAAUAUUACGCGGG | -1.91 ± 0.13 | -0.56 ± 0.13
81 | UUAGAGCAAUAUUACGCUCU | -3.64 ± 0.47 | -1.85 ± 0.3
82 | UUAGAGCAAUAUUACGCUGC |  | -2.29 ± 0.37
83 | UUAGAGCAAUAUUACGCUGG | -1.75 ± 0.11 | -0.227 ± 0.18
84 | UUAGAGCAAUAUUACGGAAG | -2.58 ± 0.33 | 
85 | UUAGAGCAAUAUUACGGAUA | -2.47 ± 0.31 | 
86 | UUAGAGCAAUAUUACGGCAC | -3.59 ± 0.38 | -1.95 ± 0.38
87 | UUAGAGCAAUAUUACGGCAG | -1.01 ± 0.18 | -0.707 ± 0.24
88 | UUAGAGCAAUAUUACGGCUU | -2.83 ± 0.21 | -1.79 ± 0.22
89 | UUAGAGCAAUAUUACGUAAC | -2.76 ± 0.39 | -1.73 ± 0.49
90 | UUAGAGCAAUAUUACGUAGC | -2.12 ± 0.24 | 
91 | UUAGAGCAAUAUUACGUCCG | -2.38 ± 0.24 | -1.99 ± 0.34
92 | UUAGAGCAAUAUUACGUGAC | -3.13 ± 0.18 | -2.64 ± 0.24
93 | UUAGAGCAAUAUUACGUUAU | -3.14 ± 0.16 | -2.14 ± 0.19
94 | UUAGAGCAAUAUUACGUUCU | -4.07 ± 0.27 | -2.92 ± 0.3
95 | UUAGAGCAAUAUUACGUUGA | -2.03 ± 0.1 | -0.538 ± 0.12
96 | UUAUAGCAAUAUUACGACAA | -0.403 ± 0.12 | -0.279 ± 0.11
97 | UUAUAGCAAUAUUACGACGG | -0.906 ± 0.11 | -0.144 ± 0.16
98 | UUAUAGCAAUAUUACGAUGC | -2.99 ± 0.34 | -1.93 ± 0.32
